Laboratory results as given in patent US20240327535A1 (EISAI R AND D MANAGEMENT, published 2024).
Changes are numbered by the printed parent chain.

T1: extracellular domain of human BCMA (human, UniProt Q02223 1-54)
T1 construct: amine-linked to Octet AR2G tips; also called hsBCMA; BCMA (human)
T1 sequence: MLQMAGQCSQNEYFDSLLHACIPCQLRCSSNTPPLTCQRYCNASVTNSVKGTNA

T2: human BCMA on NCI-H929, OPM2 and Raji cells (human, UniProt Q02223 1-184)
T2 chain: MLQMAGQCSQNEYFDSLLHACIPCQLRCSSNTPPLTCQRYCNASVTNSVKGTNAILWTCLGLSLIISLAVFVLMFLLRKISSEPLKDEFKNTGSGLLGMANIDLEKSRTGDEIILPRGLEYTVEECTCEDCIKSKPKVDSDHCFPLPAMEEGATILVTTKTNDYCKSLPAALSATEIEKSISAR

B1: AB200-(2Vk31)_R2-VH-v20 (Fab, V domains shown)
VH: QVQLVQSGAEVKKPGSSVKVSCKASGGTFSNYWIHWVRQAPGQGLEWMGGTYRSHSDTNYNQKFKSRVTITADKSTSTAYMELSSLRSEDTAVYYCARGAIYHGYDVIENWGQGTLVTVSS
VL: DIQMTQSPSSLSASVGDRVTITCRASQSISSYLNWYQQKPGKAPKLLIYATSNLQIGVPSRFSGSGSGTDFTLTISSLQPEDFATYYCQQFRRLPWTFGQGTKLEIKR
notes: also called AB200_VH2-20_VK2-31
B2: AB200-(2Vk31)_R2-VH-v3 (Fab, V domains shown)
VH: B1 VH with S30T, D57T, N59Y, I101V, E109D
VL: B1 VL
notes: also called AB200_VH2-03_VK2-31
B3: AB200-(2Vk44)_R2-VH-v75 (Fab, V domains shown)
VH: B1 VH with G50A, S54I, H55Q, N59Y, F64Y, I101V, E109D
VL: B1 VL with L33I, F91Y, T97S
notes: also called AB200_VH2-75_VK2-44
B4: AB200-(2Vk31)_R2-VH-v27 (Fab, V domains shown)
VH: B1 VH with G50A, H55Q, D57T, N59Y, I101V, E109D
VL: B1 VL
notes: also called AB200_VH2-27_VK2-31
B5: AB200-(2Vk35)_R2-VH-v6 (Fab, V domains shown)
VH: B1 VH with S30T, G50A, N59Y, N61A, F64Y, I101V, E109D
VL: B1 VL with L33I, I56S, F91Y, L94I
notes: also called AB200_VH2-06_VK2-35
B6: AB200-(2Vk30)_R2-VH-v37 (Fab, V domains shown)
VH: B1 VH with G50A, H55Q, N59Y, F64Y, I101V, E109D
VL: B1 VL with F91Y, L94I
notes: also called AB200_VH2-37_VK2-30
B7: AB200-(2Vk8)_R2-CDR1-hs-v4 (Fab, V domains shown)
VH: B1 VH with N31S, W33A, H35S, G50A, H55Q, N59F, I101V, E109D
VL: B1 VL with L33I, R93K, T97S
B8: AB200-(2Vk8)_R2-CDR2-hs-v2 (Fab, V domains shown)
VH: QVQLVQSGAEVKKPGSSVKVSCKASGGSFSNYWIHWVRQAPGQGLEWMGGIIPIFGTANYAQKFQGRVTITADKSTSTAYMELSSLRSEDTAVYYCARGAIFHGYDVIDNWGQGTLVTVSS
VL: B1 VL with L33I, R93K, T97S
B9: AB214-ADL1-D2-02 (antibody, human IgG1, kappa, V domains shown)
VH: B1 VH with G50A, H55Q, N59Y, F64Y, I101V, E109D
VL: B1 VL with F91Y, L94I
modifications: ADL1-D2 linker-payload on cysteine residues of the antibody, DAR 4.12
B10: AB216-ADL1-D2-02 (antibody, human IgG1, kappa, V domains shown)
VH: B1 VH with G50A, S54I, H55Q, N59Y, F64Y, I101V, E109D
VL: B1 VL with L33I, F91Y, T97S
modifications: ADL1-D2 linker-payload on cysteine residues of the antibody, DAR 3.8
B11: AB215-ADL1-D2-02 (antibody, human IgG1, kappa, V domains shown)
VH: B1 VH with S30T, D57T, N59Y, I101V, E109D
VL: B1 VL with F91Y, L94I
modifications: ADL1-D2 linker-payload on cysteine residues of the antibody, DAR 3.96
B12: AB217-ADL1-D2-02 (antibody, human IgG1, kappa, V domains shown)
VH: B1 VH with S30T, G50A, N59Y, N61A, F64Y, I101V, E109D
VL: B1 VL with L33I, I56S, F91Y, L94I
modifications: ADL1-D2 linker-payload on cysteine residues of the antibody, DAR 3.7
B13: AB200-mcMMAF-05 (antibody, human IgG1, kappa, V domains shown)
VH: B1 VH with I34M, G50A, S54G, N59Y, S66G, H103D, I108L, E109D
VL: B1 VL with R24S, S28D, S31N, A50Y, Q55H, I56S, F91Y, R93K
modifications: mcMMAF (ADL10-MMAF) linker-payload on cysteine residues of the antibody, DAR 4.0
notes: antibody-drug conjugate; also called AB200-ADL10-MMAF
B14: AB200-ADL5-D4-05 (antibody, human IgG1, kappa, V domains shown)
VH: B1 VH with I34M, G50A, S54G, N59Y, S66G, H103D, I108L, E109D
VL: B1 VL with R24S, S28D, S31N, A50Y, Q55H, I56S, F91Y, R93K
modifications: ADL5-D4 linker-payload on cysteine residues of the antibody, DAR 4.39
notes: antibody-drug conjugate
B15: AB214 (antibody, human IgG1, kappa, V domains shown)
VH: B1 VH with G50A, H55Q, N59Y, F64Y, I101V, E109D
VL: B1 VL with F91Y, L94I
notes: IgG1 kappa
B16: AB200 (antibody, human IgG1, kappa, V domains shown)
VH: B1 VH with I34M, G50A, S54G, N59Y, S66G, H103D, I108L, E109D
VL: B1 VL with R24S, S28D, S31N, A50Y, Q55H, I56S, F91Y, R93K
notes: IgG1 kappa
B17: AB215 (antibody, human IgG1, kappa, V domains shown)
VH: B1 VH with S30T, D57T, N59Y, I101V, E109D
VL: B1 VL with F91Y, L94I
notes: IgG1 kappa
B18: AB216 (antibody, human IgG1, kappa, V domains shown)
VH: B1 VH with G50A, S54I, H55Q, N59Y, F64Y, I101V, E109D
VL: B1 VL with L33I, F91Y, T97S
notes: IgG1 kappa
B19: AB218 (antibody, human IgG1, kappa, V domains shown)
VH: B1 VH with G50A, H55Q, D57T, N59Y, I101V, E109D
VL: B1 VL
notes: IgG1 kappa
B20: AB213 (antibody, human IgG1, kappa, V domains shown)
VH: B1 VH with S30T, D57T, N59Y, I101V, E109D
VL: B1 VL
notes: IgG1 kappa
B21: AB212 (antibody, human IgG1, kappa, V domains shown)
VH: B1 VH
VL: B1 VL
notes: IgG1 kappa
B22: AB217 (antibody, human IgG1, kappa, V domains shown)
VH: B1 VH with S30T, G50A, N59Y, N61A, F64Y, I101V, E109D
VL: B1 VL with L33I, I56S, F91Y, L94I
notes: IgG1 kappa
B23: AB200-ADL1-D2-02 (antibody, human IgG1, kappa, V domains shown)
VH: B1 VH with I34M, G50A, S54G, N59Y, S66G, H103D, I108L, E109D
VL: B1 VL with R24S, S28D, S31N, A50Y, Q55H, I56S, F91Y, R93K
modifications: ADL1-D2 linker-payload on cysteine residues of the antibody, DAR 3.92
notes: antibody-drug conjugate; also called AB200 ADC incorporating the ADL1-D2 linker-payload

biological target: T1, extracellular domain of human BCMA; experiment: Octet BLI; Fab 200 nM

Binder | Kd
B1 | 38.6 nM
B2 | 2.7 nM
B3 | 1.07 nM
B4 | 6.43 nM
B5 | 1.66 nM
B6 | 1.14 nM

biological target: T3, extracellular domain of rhesus monkey BCMA (rhesus monkey, UniProt F7FFA0 1-53); experiment: Octet BLI; Fab 200 nM
T3 construct: extracellular domain; also called RhBCMA
T3 sequence (F7FFA0 entry or part of it): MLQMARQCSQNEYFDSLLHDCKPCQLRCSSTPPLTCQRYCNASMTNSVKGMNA

Binder | Kd
B1 | 79.3 nM
B2 | 5.03 nM
B3 | 5.53 nM
B4 | 13.9 nM
B5 | 9.6 nM
B6 | 6.33 nM

biological target: T1, extracellular domain of human BCMA; experiment: Octet BLI; Fab 200 nM; remark: another data set of the same source

Binder | Kd
B6 | 0.81 nM

biological target: T3, extracellular domain of rhesus monkey …; experiment: Octet BLI; Fab 200 nM; remark: another data set of the same source

Binder | Kd
B6 | 6.05 nM

biological target: T1, extracellular domain of human BCMA; experiment: Octet BLI; Fab 200 nM; remark: another data set of the same source

Binder | Kd
B1 | 42 nM
B2 | 2.55 nM
B4 | 7.13 nM

biological target: T3, extracellular domain of rhesus monkey …; experiment: Octet BLI; Fab 200 nM; remark: another data set of the same source

Binder | Kd
B1 | 93.8 nM
B2 | 5.73 nM
B4 | 15.3 nM

biological target: T1, extracellular domain of human BCMA; experiment: Octet BLI; Fab 200 nM; remark: another data set of the same source

Binder | Kd
B7 | 591 nM
B8 | 151 nM

biological target: T3, extracellular domain of rhesus monkey …; experiment: Octet BLI; Fab 200 nM; remark: another data set of the same source

Binder | Kd
B7 | 773 nM

biological target: T1, extracellular domain of human BCMA; experiment: Octet BLI; Fab 200 nM; remark: another data set of the same source

Binder | Kd
B5 | 1.29 nM

biological target: T3, extracellular domain of rhesus monkey …; experiment: Octet BLI; Fab 200 nM; remark: another data set of the same source

Binder | Kd
B5 | 9.36 nM

biological target: T1, extracellular domain of human BCMA; experiment: Octet BLI; Fab 200 nM; remark: another data set of the same source

Binder | Kd
B3 | 0.8 nM

biological target: T3, extracellular domain of rhesus monkey …; experiment: Octet BLI; Fab 200 nM; remark: another data set of the same source

Binder | Kd
B3 | 5.22 nM

Biological target: T2, human BCMA on NCI-H929, OPM2 and Raji …
Experiment: cell-based or functional assay

Binder | GI50 (nM) OPM2.1, cell viability | LD50 (nM) OPM2.1, cell viability
B9 | 1.54 nM | 25.1 nM
B10 | 1.56 nM | 14 nM
B11 | 4.04 nM | 73.7 nM
B12 | 2.17 nM | 16.3 nM

Biological target: T2, human BCMA on NCI-H929, OPM2 and Raji …
Experiment: flow cytometry, NCI-H929 cells

Binder | Kd
B13 | 6 to 10 nM
B14 | 6 to 10 nM

Biological target: T2, human BCMA on NCI-H929, OPM2 and Raji …
Experiment: flow cytometry, OPM2 cells

Binder | Kd
B15 | 2.12 nM
B16 | 10 nM
B17 | 3.63 nM
B18 | 2.27 nM
B19 | 0.687 nM
B20 | 1.96 nM
B21 | 4.33 nM
B22 | 2.33 nM

Biological target: T2, human BCMA on NCI-H929, OPM2 and Raji …
Experiment: flow cytometry, Raji cells

Binder | Kd
B15 | 5.66 nM
B16 | 14 nM
B17 | 11.2 nM
B18 | 6.43 nM
B19 | 2.15 nM
B20 | 8.83 nM
B21 | 16 nM
B22 | 7.31 nM

Biological target: T2, human BCMA on NCI-H929, OPM2 and Raji …
Experiment: flow cytometry, NCI-H929 cells
Remark: another data set of the same source

Binder | Kd
B15 | 2.84 nM
B16 | 50.5 nM
B17 | 8.06 nM
B18 | 3.05 nM
B19 | 0.987 nM
B20 | 4.26 nM
B21 | 9.68 nM
B22 | 3.38 nM

Biological target: T2, human BCMA on NCI-H929, OPM2 and Raji …
Experiment: flow cytometry, NCI-H929 cells
Remark: another data set of the same source

Binder | Kd
B14 | 9.8 nM
B23 | 9.66 nM
B9 | 1.02 nM
B10 | 0.836 nM
B11 | 1.3 nM
B12 | 0.366 nM

Biological target: T2, human BCMA on NCI-H929, OPM2 and Raji …
Experiment: flow cytometry on NCI-H929 cells (BCMA high), fluorescent anti-human IgG1 secondary antibody, MFI against antibody conc.

Binder | EC50 (read off the curve)
B15 | ~3 nM
B17 | ~7 nM
B20 | ~4 nM
B22 | ~3 nM

Biological target: T2, human BCMA on NCI-H929, OPM2 and Raji …
Experiment: flow cytometry on NCI-H929 cells (BCMA high), fluorescent anti-human IgG1 secondary antibody, MFI against test article concentration

Binder | EC50 (read off the curve)
B13 | ~6 nM
B14 | ~9 nM
B23 | ~9 nM
B9 | ~1 nM
B10 | ~0.7 nM
B11 | ~1 nM
B12 | ~0.4 nM
